Assay results taken from the DeepSol protein solubility set.

Assay: soluble on expression in E. coli; label from the status in PepcDB or PDB records

| Sequence | soluble on expression in E. coli |
| --- | --- |
| MPGKNEYAVESLLTVGNGFLGLRGTTPEMTISDDHYPATYIAGLYNTAASEVAGQVVENEDFVNAPDNQHIALKIGDATDWLTISPDTLQQLHRQLNLKTGLFVAEMILKDADNQQIKLTTKKIANMAQPNDYHLQYTFEPLNFSAPITLKTVTDGSVYNYNVARYRNLTAKHFQVTALSAQENKTVIEVCTNQSNLSVRETSLITGDFFEKEAITIQEEAEKIAQVVTVMAHQGTRYTLEKQVFVQASHAEQSWQVPFTPKDSFAAAAQESARAWQTLWQQANITVTGDLMSQKLLRIHSYHLLASASPFSNQAQALDVSITARGLHGEAYRGHIFWDEIFILPFYIQHYPDTAKQLLLYRYHRLEKAKENAAASQYRGAMYPWQSGRDGRETTQKLHLNPLNGHWGEDHSILQRHVSLAIAYNAWLYWHSTQDHEFMKQYGGEMLLEIAQFWNSAATLDDATGRFFIDKVMGPDEFHEGYPDQAESGLKNNAYTNLMVVWLFEELTNILALFSEEEQAQLFAKTQTTSADLARMQQIQNSLEIEVNSDGIIAQYEGYFGLKEIDWTAMKEKYGNIYRMDRILKAEGESPDDYKVAKQADTLMLFYNLDKTRVDQILEDLGYQLPADYLEKNLLYYLKRTSHGSTLSRIVHAQLAEMAQFHELSWQLYQEALYSDYRDIQGGTTAEGIHTGVMAATIHVTLATYAGVDTRQNELSICPNLPEHWQALAFQFIHQGVTYQFSLTQTSVTITADRDTQLLVQGALIPLTAERPKEVHYQ | not soluble |
| VHYGLKGITCVETSISHIDGEKGRLIYRGHHAKDIALNHSFEEAAYLILFGKLPSTEELQVFKDKLAAERNLPEHIERLIQSLPNNMDDMSVLRTVVSALGENTYTFHPKTEEAIRLIAITPSIIAYRKRWTRGEQAIAPSSQYGHVENYYYMLTGEQPSEAKKKALETYMILATEHGMNASTFSARVTLSTESDLVSAVTAALGTMKGPLHGGAPSAVTKMLEDIGEKEHAEAYLKEKLEKGERLMGFGHRVYKTKDPRAEALRQKAEEVAGNDRDLDLALHVEAEAIRLLEIYKPGRKLYTNVEFYAAAVMRAIDFDDELFTPTFSASRMVGWCAHVLEQAENNMIFRPSAQYTGAIPEEV | soluble |
| MGNFTFEEMNLMCIYNTGSRTGLIDSLREMRGELSPEETELRELTDSALTKLCAMTDEDFAQLELYPDFDQLEHHHHHH | soluble |
| TQYWDFCFREPDVAATDQEYREELDRLFVQAVKRQLVTDVELGSYLSGGMDSGSIAAVAAAEHPYIKTFTCGFDLNSASGIELGFDERSKAEYMSYCFKTEHYEMVLKAGDMERILPHVACHLEEPRVGQSYPNFFAAKLASRFVKVVLSGAGGDELFAGYPWRYYRAVVNDDFEHYVDKYYNFWQRLLPNSELKRVFAPIAGEVEHVWTRDIFRNVFRHHADQLYRPEDYINHSLYFEAKTFLHGLLVVEDKLSMAHGLETRVPFLDNDLVEFAMRCPIRLKLNNLAEVVKINENETGNKVRKFFEKNRDGKTILREVMNHRLPADISKAEKQGFSAPDASWFKGESLEFVRRKLLDGHSPLYEIMDAATVRELVNEHLGGIRNRRLLIWSLLSVDAWMRQT | not soluble |
| GAMADRDRLRPPLDERSLRDQLIGAGSGWRQLDVVAQTGSTNADLLARAASGADIDGVVLIAEHQTAGRGRHGRGWAATARAQIILSVGVRVVDVPVQAWGWLSLAAGLAVLDSVAPLIAVPPAETGLKWPNDVLARGGKLAGILAEVAQPFVVLGVGLNVTQAPEEVDPDATSLLDLGVAAPDRNRIASRLLRELEARIIQWRNANPQLAADYRARSLTIGSRVRVELPGGQDVVGIARDIDDQGRLCLDVGGRTVVVSAGDVVHLR | soluble |
| MGNLCSTSKNEAEPFSRPGRVLGSAANPPPNAAPRAPLPAKSKAPFKSPGRSLGEAAPEVPGAERADARTNAAIAAQVSDTVERSGAALVCGRWLTGECQKRAESAAKAQKGKLGSKLAAQKAQTQAKTLSEVSREQISARHMDESSEARRWN | not soluble |
| MGSDKIHHHHHHMTDSPHTIRNPAAPLAERLRPRTLDDVVGQSHLLGPGKPLRLAFESGKPHSMILWGPPGSGKTTLARLMAHAFDAEFIAISAVLSGVKDIREAIERAQITLQRTGRATLLFVDEVHRFNKAQQDAFLPHVEQGLITFIGATTENPSFEVNGALLSRAQVYALKALTDQELHQLFERARSIAMLDLEFENTAIELLIGFADGDARRLLNLLEQVQNAAETEEIIKIDADYLSRVLARNVRRFDKGGDAFYDQISALHKSIRGSSPDAALYWLCRMLDGGADPRYIGRRLVRTATEDIGLADPRALTLALNACEVFERLGSPEGELALAQATLYLACAPKSNAAYVAYKQARAFIKEDISRPVPIHLRNAPTRLMREMGHGAAYRYAHDESESYAAGENYFPDNILAVQFYRPTTHGLEAKIGEKLAYLRSLDEKTGKKRN | not soluble |
| MPKIDLIIFDCDGVLVDSEYLAAQIGSQLLKKIGYEISPEELSARYAGLIFPDILKKVEQETGKPTSAHLIDQMSDLFRAQIKTELRAIDGIKEAIEAIQSHYPYCICSNARSTEIKEMLTIVDLYDFFDNKDKIFSAPEVGTKKTKPAPDVFLFAAQQLRVKPKNTIVIEDSIHGVHAATAAGMRVIGFTGGSHSYLGHSNALVEAGAETAIAKHAHLLEVLEAMAVWQDLP | not soluble |
| GHMAGGTKRLPRAVREQQMLDAAVDVFSDRGFHETSMDAIAAKAEISKPMLYLYYGSKDELFAACIQREGLRFVEALAPAGDPGLSPREQLRRALEGFLGFVGKHRKSWMVLYRQAMGQQAFVGSVQSSRDRLIELTAHLLESSTKDPEPGQDFELIAIALVGAGEAVADRVAGGEIEVDAAADLLESLAWRGLAGKKKPEGS | soluble |
| MRGSHHHHHHGSRSSKNVIKEFMRFKVRMEGTVNGHEFEIEGEGEGRPYEGHNTVKLKVTKGGPLPFAWDILSPQFQYGSKVYVKHPADIPDYKKLSFPEGFKWERVMNFEDGGVVTVTQDSSLQDGCFIYKVKFIGVNFPSDGPVMQKKTMGWEASTERLYPRDGVLKGEIHKALKLKDGGHYLVEFKSIYMAKKPVQLPGYYYVDSKLDITSHNEDYTIVEQYERTEGRHHLFL | soluble |
| MGSDKIHHHHHHMRVGATLARAIALKYNKKLVPVNHGIGHIEIGYLTTEARDPLILYLSGGNTIITTFYKGRFRVFGETLDIALGNMMDVFVREVSLAPPYIINGIHVIDICAEKGNKLLKLPYVVKGQDMSFSGLLTAALRVVGKEKLEDICYSVREIAFDMLLEATERALALTSKKELMIVGGVAASVSLRKKLEELGKEWNVQIKIVPPEFAGDNGAMIAYAGMLAASKGVFIDVDKSYIRPRWRVDEVDIPWRN | not soluble |
| MKSHCNKMVGGELKPIIAALLPVEPFYPTQVPFVLSRYIYDVADRQQSSLDYVAVSALCALAAVIGNPHCS | not soluble |
| MRTLKIEPLTKEAFAPFGDVIETAGSDYFMINNGSTRRYHKLATVETAQPEDNAIISIFSAEKLEMPLRIRMLERHPLGSQAFIPLLGNPFLVVVAPLGDVPVPGLVRAFLTNGRQGVNYHRGVWHHPVLTIEKRDDFLVVDRSGSGNNCDEHFFTEDEQLLLDPQSNQLEHHHHHH | not soluble |
| MSTIELNKRQEHILQIVKENGPITGEHIAEKLNLTRATLRPDLAILTMSGFLEARPRVGYFYTGKTGTQLLADKLKKLQVKDFQSIPVVIHENVSVYDAICTMFLEDVGTLFVVDRDAVLVGVLSRKDLLRASIGQQELTSVPVHIIMTRMPNITVCRREDYVMDIAKHLIEKQIDALPVIKDTDKGFEVIGRVTKTNMTKILVSLSENEILAAAAAALEHHHHHH | soluble |
| MHSLFTLNLDLERAGKVICVQSLPFDTARETLLLLSPVGTQCCYMKNAALFLISHFNLIILESDTWLAYANEAGVNPEEGVADFIRQFNAALPEPVRVDALVGYCSSAPLALLAANQGACRTLLLLNGAYFLKDDGVIKSQYERDVERMMQSIPQGNCAQVYEAVSLLHTKSAYTPSDYRYQQVRPLRELSAFRQYLTFLNSLASLESVRIAQTVKTPTLVWCGSQDRYTDTASSRYIAQLLPHSELVEDPDGQHHDFVDGHERLYLTMTHFLTRHKQRAIQ | not soluble |
| MLVDHLLARGATDVRALTNHPDKAQLPDSVTVVEGYLRRLGSLPAAFEGVDSLYLAPTPDTAPDALALAKQAGVRHVVDLSGPHDGHWGDVARAVEASGIEWTHLWPGEFMENAGILAPQITAGDTVREPYPTAANAPIAMDDIAEVAAVALLESGHVGASYELTGPETITRAELVRELGAALGRNIEYRQVSLDEAVDVLTPAMGEYARWY | not soluble |
| DLQNMDATNWLGNSVSEGFIHQFQRRGFKVVDFKTTGSIQVTQQGDFALSRDWQDLAQEQQIQYVLTGTMLRQEGGVLVNARVVGMQSRVVVATAQGFLPADRIGRDLDTLNSIRTQDGVLIRSDPTIRQPYTVILRP | not soluble |
| MNIEEIKIMGGFNKFGESEKVKELVVKRGEIFGVVGPTGSGKSNLISDIEQLAQGDTPSNRKILVNGNVPDTEMRRDPRKRRIAQLSQNMNFLADMTVEEFLIMHAKSRGMNSEGIVDKVIKLANNLTGEPIEKDYNLTILSGGQSRSLMVADVAVISDSPIVLIDEIENAGIKKHEALELLAGCGKIVMVITHDPVLALMTTRRVVMRNGGMNEIIETTE | not soluble |
| MREAMFYEKLDDNKVRCHICPRHCIIKEGERGFCWNRENINGVLYAVGYGKVCSLAIDPIEKKPLFHFYPTTQVVSLAIGGCNFRCLHCQNWTISQFPPDEIPYREMTPEEIVEVAIRYNCPGISYTYTEPTVYYEFMYDTSVIARENGMFNVMITNGYIEKEPLKALPVDAMNIDIKGNADFYKKVCKATLEPVLETCKLAKKLGIWVEVTNLIVPNYNDNIDDLLFIIHFVRDELGRETPLHFSRFHPDYKLTDVPPTPIETLEMARNLAIEEGLKYVYIGNVPGHEGENTYCPNCGALLIERYIFNAKIINLDVETKRCKICGEKIDIVL | not soluble |
| MGSDKIHHHHHHIFSSCTDDFEKLNTSNIQVDPADLPFAAQCTEPMTYCYPPQQNMFQFWTNLTIDLYGGYFMTPNGNFTNGDMGENRGHSGGMYENYYLHIFNNTRRIIAQCDASGERGLSGVMRIVQAYGTLMTTDAYGPIPYSSILSGENEVYFEFDSQKDLYKAMLEDLSTAITDISAMGADEIAKLKSFDCWCNGDKDLWVKIANTMKLRMALRLSKRETEAGNAGMNLKAIATEAAQNTLATVNKDILIDKSLENEMWLMFNWGDCGFNANLVTIMSGTKDPRQPLYMTLNTGDIKNEAGTTTVAANSQYLGIRFASGLPAKPNSWGNFSGWIQGNNGSSYSMPLPIMKAAEAYFLLAEAKLRWDIGSESVKNLYENGIRVSMTNELAYRGAYAGIKEYPEGAVDAYINGTSTQIDYTDPIKAELSTPAVNKLSVKWDESASNEEKLERIITQKWLALFPLSTEGWAEQRRTGYPRFFPAFVNESNGAVNTEEGVRRVIYSSQAYDANAKGVEGGIKLLDEENSSKFGISGDKGGTHLWWDNADKGNF | not soluble |
| MKTTEFTMPEITISYKDNVKASERVKILSSETSYTYLKPFYAECMEHHEESYVMFLNRANKALGISLISKGGMAETVMDVKIILQTALKVHASGIVLSHNHPSGNLRPSEPDKKITTKINEACKVLDLHLLDHIILTEESYYSFADEGLL | not soluble |
